Results reported in the supplement of paper PMC10567573.

B1: PLD5 (parent)
chain: WIVDKQHVYIGSAGLDWQSLGQMK
B2: BTBD1 (parent)
chain: TSAEIELPDVEPAAFLALLRFLYS

Variants of: B1
Test: protein stability index of a GFP-peptide fusion (GPS, HEK-293T) (PSI 1-6); higher = more stable
Details: c terminus: a fixed tail appended
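Note: lentivirally expressed fusions sorted by FACS into six bins by GFP to DsRed ratio, PSI derived from sequencing read proportions per bin multiplied by bin number.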

Protein stability index, by site and new letter:
K24: D 2.02, V 2.15, F 2.05, M 2.58, L 2.68, I 1.79, E 2.51, S 3.37, C 3.61, H 2.79, A 2.37, T 2.23, W 2.97, P 2.17, N 2.36, R 1.51
M23: A 1.55, T 2.06, I 2.15, S 1.74, Y 1.84, H 1.32, E 2.11, C 2.21, F 1.69, D 2.15, W 2.19, N 1.9, G 1.9, P 1.85, V 1.29, Q 2.09, L 2.12, K 1.69, R 1.97
G21: T 1.86, Y 1.72, S 1.52, V 2.13, R 1.86, W 1.68
Q22: P 2.01, T 2.97, D 1.97, V 1.79, S 1.97, R 1.37, K 2.32, G 1.8, L 3.9, E 1.59, C 2.35, I 1.53, H 2.74, A 2.11, F 2.59, N 1.67, Y 2.35, W 2.11

Variants of: B2
Test: as above
Details: c terminus: a fixed tail appended

Protein stability index, by site and new letter:
S2: G 2.15, H 1.82, E 1.65, D 1.61, V 1.87, T 1.74, L 1.99, M 1.7, Y 2.28, R 2.09, K 2.39, I 2.07, A 1.72, W 1.91, F 2, P 2.33, N 1.49, C 2.05, Q 2.24
E4: T 1.73, V 1.55, S 1.45, W 1.88, N 1.44, Q 2.14, R 1.59, K 1.17, M 1.55, H 1.56, C 1.8, D 1.66, G 2.07, A 1.84, Y 1.68, I 2.07, L 1.91, P 1.64, F 2.24
A3: M 1.52, G 2.66, D 2.12, T 1.99, C 1.98, Q 2.01, N 1.96, V 2.27, K 2.17, F 1.58, S 1.67, W 1.41, Y 1.83, R 2.26, I 2.26, E 1.91, H 1.8, P 2.12, L 1.53
I5: P 1.68, M 1.89, W 2, L 1.75, N 2.14, S 1.94, A 2.06, K 2.94, H 1.93, E 2.03, Y 1.95, F 1.78, Q 2.4, C 1.77, D 2.44, T 2.18, G 2.55, V 1.75, R 2.55
E6: D 2.07, M 2.22, A 2.19, N 1.96, Q 2.01, F 1.64, C 2.3, H 1.78, P 2.31, L 1.73, G 1.75, I 2.82, K 2.13
T1: K 2.68, P 1.88, F 1.79, M 2.46, C 2.79, L 2.02, V 1.88, S 1.65, R 1.9, W 1.96, Y 1.97, H 2.15, I 1.65, G 2.56, N 2.17, E 1.66, D 2.4, Q 1.97, A 2.22
